From US20240424057A1 (CASE WESTERN RESERVE UNIVERSITY, published 2024)

Experiments:
[1] = molecular target: T1, recombinant PTPRD-his protein, extracellular domain (Creative BioMart, PTPRD-36H) (Homo sapiens (Human), UniProt P23468 21-1265, biotinylated with EZ-Link-Sulfo-NHS-Biotin in the BLI assay); assay: bio-layer interferometry (Octet RED96), biotinylated PTPRD on SSA biosensors, asprosin 1.23-900 nM, 1:1 global fit
T1 construct: only the extracellular domain stood in the assay; Used in the co-immunoprecipitation and in BLI; also called rPTPRD-his; PTPRD-6his; not shown: 6xHis tag
T1 sequence: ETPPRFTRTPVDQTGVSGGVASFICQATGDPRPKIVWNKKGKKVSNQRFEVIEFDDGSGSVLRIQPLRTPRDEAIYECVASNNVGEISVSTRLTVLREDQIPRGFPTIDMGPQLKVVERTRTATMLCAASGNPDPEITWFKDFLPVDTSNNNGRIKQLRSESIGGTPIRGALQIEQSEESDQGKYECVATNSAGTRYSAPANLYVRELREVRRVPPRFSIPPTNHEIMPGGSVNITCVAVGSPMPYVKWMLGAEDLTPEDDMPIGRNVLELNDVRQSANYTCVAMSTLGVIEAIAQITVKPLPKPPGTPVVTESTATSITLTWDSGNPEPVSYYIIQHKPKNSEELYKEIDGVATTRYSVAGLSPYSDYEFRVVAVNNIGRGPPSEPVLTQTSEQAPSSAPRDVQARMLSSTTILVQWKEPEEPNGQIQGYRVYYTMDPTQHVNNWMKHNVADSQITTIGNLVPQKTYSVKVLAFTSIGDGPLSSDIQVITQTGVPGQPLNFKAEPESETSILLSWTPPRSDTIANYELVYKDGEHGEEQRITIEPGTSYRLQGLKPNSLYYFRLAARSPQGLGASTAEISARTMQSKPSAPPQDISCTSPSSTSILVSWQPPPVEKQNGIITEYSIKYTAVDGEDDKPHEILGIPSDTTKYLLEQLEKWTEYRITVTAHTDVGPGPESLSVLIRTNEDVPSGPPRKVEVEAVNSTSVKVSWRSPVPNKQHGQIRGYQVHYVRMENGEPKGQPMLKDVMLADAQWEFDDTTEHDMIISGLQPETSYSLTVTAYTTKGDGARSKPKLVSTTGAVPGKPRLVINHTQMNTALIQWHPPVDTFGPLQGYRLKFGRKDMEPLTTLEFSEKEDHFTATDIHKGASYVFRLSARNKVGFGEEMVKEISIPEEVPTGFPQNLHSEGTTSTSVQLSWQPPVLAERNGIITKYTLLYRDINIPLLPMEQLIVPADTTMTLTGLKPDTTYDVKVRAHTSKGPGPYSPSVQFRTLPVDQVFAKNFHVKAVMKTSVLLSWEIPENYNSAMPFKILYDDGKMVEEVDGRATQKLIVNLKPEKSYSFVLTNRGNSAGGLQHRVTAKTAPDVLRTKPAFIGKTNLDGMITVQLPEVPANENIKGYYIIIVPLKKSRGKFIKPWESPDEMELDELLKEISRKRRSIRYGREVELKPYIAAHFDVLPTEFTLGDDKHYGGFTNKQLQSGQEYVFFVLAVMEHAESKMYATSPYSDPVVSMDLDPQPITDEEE
Method: (§1) Binding affinity of asprosin to PTPRD was measured on Pall ForteBio's Octet RED96 system. The PTPRD protein (Creative BioMart, PTPRD-36H) was labeled with Biotin using EZ-Link-Sulfo-NHS-Biotin (ThermoFisher Scientific, 21217) and desalted by Zeba™ Spin Desalting Columns. The biotin-labeled PTPRD (20 μg/ml) was loaded on the super streptavidin (SSA) biosensors for 300 seconds. Following 20 seconds of baseline in kinetics buffer, the loaded biosensors were dipped into a series of 3-fold diluted human asprosin (1.23-900 nM) for 300 seconds to record association kinetics and then dipped into a kinetic buffer for 600 seconds to record dissociation kinetics. Kinetic buffer without asprosin was set to correct the background. For fitting of KD value, ForteBio's data analysis software was used to fit the curve by a 1:1 binding model and the global fitting method was applied.

[2] = molecular target: T1, recombinant PTPRD-his protein, …; assay: bio-layer interferometry (Octet RED96), biotin-labelled PTPRD on super streptavidin biosensors, asprosin 1.23-900 nM in solution, 1:1 global fit
Method: as §1

[3] = molecular target: T2, PTPRD extracellular domain, His-tagged (Acro Biosystems, PTD-H52H9) (Homo sapiens (Human), UniProt P23468 21-1265); assay: microscale thermophoresis, fluorescently labelled PTPRD, unlabelled asprosin titrated
T2 construct: only the extracellular domain stood in the assay; also called rPTPRD; rPTPRD-LBD; not shown: His tag (labelled with the His-Tag Labeling Kit RED-tris-NTA)
T2 sequence: T1 sequence
Method: The microscale thermophoresis (MST) assay was performed with the Monolith NT.115 from NanoTemper Technologies. PTPRD (Acro Biosystems, PTD-H52H9) was fluorescently labeled according to the manufacturer's protocol (His-Tag Labeling Kit RED-tris-NTA, NanoTemper). A solution of unlabeled asprosin was serially diluted according to the manufacturer's protocol. After labeled PTPRD and unlabeled asprosin were mixed and incubated at room temperature for 30 minutes, samples were loaded into glass capillaries (Monolith NT.115 Capillaries, NanoTemper). Measurements were carried out according to manufacturer's protocol: 40% power and 40% MST power. Assays were repeated three times and KD's were calculated using the NanoTemper analysis software.

[4] = molecular target: T2, PTPRD extracellular domain, His-tagged …; assay: SPR (Biacore T200), PTPRD amine-coupled on CM5 chip, asprosin injected, steady-state analysis
Method: Surface plasmon resonance (SPR) studies were performed using Biacore T200 with PTPRD (Acro Biosystems, PTD-H52H9) covalently immobilized on an S series CM5 sensor chip via amine coupling. To avoid protein aggregation, […] used in SPR experiments were purified by gel filtration in a buffer containing 25 mM Tris-HCl (pH 8.0), 100 mM NaCl and 5 mM DTT, stored at 4° C., and used within 48 hr with minimum concentration process. Asprosin was injected in a series of concentrations from […] to 7.8125 nM was injected at 30 μl/min over the sensor chip at room temperature. Sensorgram traces subtracted with the reference and zero-concentration traces were analyzed using BIA Evaluation software (GE Healthcare Bio-Sciences). Nonlinear steady-state analysis was performed to compute Kd.

- Kd [1]: 57 nM
- koff [2]: 0.000377 s⁻¹
- kon [2]: 6610 M⁻¹ s⁻¹
- Kd [3]: 4.2 nM
- Kd [4]: 36.8 nM
B1: recombinant human asprosin (ligand, UniProt P35555 2732-2871, looked up)
chain: STNETDASNIEDQSETEANVSLASWDVEKTAIFAFNISHVSNKVRILELLPALTTLTNHNRYLIESGNEDGFFKINQKEGISYLHFTKKKPVAGTYSLQISSTPLYKKKELNQLEDKYDKDYLSGELGDNLKMKIQVLLH
notes: domain: cleaved asprosin; Unlabelled analyte in SPR, MST and BLI, and the recombinant asprosin used in IP/MS, ELISA and slice electrophysiology; Only the BLI and ELISA methods call it human; also called rAsprosin; recombinant asprosin
